B1: Trigger factor (Thermotoga maritima (strain ATCC 43589 / MSB8 / DSM 3109 / JCM 10099)), Q9WZF8 (parent)
chain: MEVKELERDKNRVVLEYVFGAEEIAQAEDKAVRYLNQRVEIPGFRKGRIPKNVLKMKLGEEFQEYTLDFLMDLIPDTLKDRKLILSPIVTERELKDVTARVVVEVHEEPEVRIGDISKIEVEKVDEEKVLEKYVERRIEDLRESHALLEPKEGPAEAGDLVRVNMEVYNEEGKKLTSREYEYVISEDEDRPFVKDLVGKKKGDVVEIEREYEGKKYTYKLEVEEVYKRTLPEIGDELAKSVNNEFETLEQLKESLKKEGKEIYDVEMKESMREQLLEKLPEIVEIEISDRTLEILVNEAINRLKREGRYEQIVSSYESEEKFREELKERILDDIKRDRVIEVLAQEKGISVNDEELEKEAEELAPFWGISPDRAKSLVKARQDLREELRWAILKRKVLDLLLQEVKVKVVEPKGEGDDSEGKEDN
partner: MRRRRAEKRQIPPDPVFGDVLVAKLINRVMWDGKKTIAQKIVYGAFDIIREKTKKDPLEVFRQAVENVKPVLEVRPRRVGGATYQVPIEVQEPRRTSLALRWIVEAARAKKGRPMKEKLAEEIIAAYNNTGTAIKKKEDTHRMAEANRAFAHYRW

Variants of: B1
Settings: with rs7_thema rpsG

Row | effect of a mutation on the interaction | Variant
1 | disrupting interaction | E266R;E269R;E273R
